PMC8666006 (Cancer cell, 2020)
Blank lines part the entries; values can stand above or below the binder they belong to.

Biological target: MutLα (MLH1-PMS2) (human, UniProt P40692 1-756; P54278 1-862)
Assay: co-IP

Chain of MutLα (MLH1-PMS2) (P40692 whole entry, chain 1 of 2): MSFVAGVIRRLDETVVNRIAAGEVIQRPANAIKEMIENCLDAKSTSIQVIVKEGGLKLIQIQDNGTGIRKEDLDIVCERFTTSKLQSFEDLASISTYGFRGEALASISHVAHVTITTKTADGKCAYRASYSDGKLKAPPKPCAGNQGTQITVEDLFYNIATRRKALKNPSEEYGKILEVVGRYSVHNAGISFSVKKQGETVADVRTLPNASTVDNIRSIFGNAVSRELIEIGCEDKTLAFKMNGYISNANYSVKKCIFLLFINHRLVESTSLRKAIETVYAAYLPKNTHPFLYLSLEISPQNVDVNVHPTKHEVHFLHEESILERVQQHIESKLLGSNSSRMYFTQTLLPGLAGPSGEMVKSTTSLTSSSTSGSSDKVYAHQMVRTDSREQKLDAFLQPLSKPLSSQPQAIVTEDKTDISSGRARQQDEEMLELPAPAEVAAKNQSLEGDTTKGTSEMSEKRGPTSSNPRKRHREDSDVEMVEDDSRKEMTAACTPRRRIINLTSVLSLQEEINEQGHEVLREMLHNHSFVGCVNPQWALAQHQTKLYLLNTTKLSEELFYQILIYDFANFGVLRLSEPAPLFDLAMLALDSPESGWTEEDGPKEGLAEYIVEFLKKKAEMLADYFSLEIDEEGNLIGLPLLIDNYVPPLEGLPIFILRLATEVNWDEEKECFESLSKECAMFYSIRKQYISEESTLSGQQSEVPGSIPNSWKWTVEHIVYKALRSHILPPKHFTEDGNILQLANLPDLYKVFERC
Chain of MutLα (MLH1-PMS2) (P54278 whole entry, chain 2 of 2): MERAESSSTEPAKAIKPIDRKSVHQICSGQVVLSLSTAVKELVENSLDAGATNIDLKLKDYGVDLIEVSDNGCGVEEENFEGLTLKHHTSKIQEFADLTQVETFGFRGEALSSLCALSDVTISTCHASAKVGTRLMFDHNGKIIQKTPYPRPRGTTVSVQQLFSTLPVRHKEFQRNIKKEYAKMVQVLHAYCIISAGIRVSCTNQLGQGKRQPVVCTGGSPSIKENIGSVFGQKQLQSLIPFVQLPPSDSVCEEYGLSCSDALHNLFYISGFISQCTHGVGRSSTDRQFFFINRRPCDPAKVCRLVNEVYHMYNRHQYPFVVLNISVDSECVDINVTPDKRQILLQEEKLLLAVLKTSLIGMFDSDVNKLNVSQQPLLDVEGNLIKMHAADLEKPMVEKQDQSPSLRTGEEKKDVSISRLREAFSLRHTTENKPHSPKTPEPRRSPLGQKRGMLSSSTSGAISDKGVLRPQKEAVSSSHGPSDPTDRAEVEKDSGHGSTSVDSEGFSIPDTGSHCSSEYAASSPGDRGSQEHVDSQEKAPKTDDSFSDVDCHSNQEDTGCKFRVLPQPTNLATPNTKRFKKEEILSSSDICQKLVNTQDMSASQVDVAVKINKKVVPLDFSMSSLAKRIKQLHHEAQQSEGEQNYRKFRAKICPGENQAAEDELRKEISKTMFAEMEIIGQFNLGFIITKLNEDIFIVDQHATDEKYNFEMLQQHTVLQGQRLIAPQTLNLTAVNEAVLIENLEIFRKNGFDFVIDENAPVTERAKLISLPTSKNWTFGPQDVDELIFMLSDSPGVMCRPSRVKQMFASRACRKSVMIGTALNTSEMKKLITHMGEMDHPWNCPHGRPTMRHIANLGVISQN

binding result: binds
B1: Exo1-FF-AA (enzyme, human, UniProt Q9UQ84 1-846, looked up)
chain: MGIQGLLQFIKEASEPIHVRKYKGQVVAVDTYCWLHKGAIACAEKLAKGEPTDRYVGFCMKFVNMLLSHGIKPILVFDGCTLPSKKEVERSRRERRQANLLKGKQLLREGKVSEARECFTRSINITHAMAHKVIKAARSQGVDCLVAPYEADAQLAYLNKAGIVQAIITEDSDLLAFGCKKVILKMDQFGNGLEIDQARLGMCRQLGDVFTEEKFRYMCILSGCDYLSSLRGIGLAKACKVLRLANNPDIVKVIKKIGHYLKMNITVPEDYINGFIRANNTFLYQLVFDPIKRKLIPLNAYEDDVDPETLSYAGQYVDDSIALQIALGNKDINTFEQIDDYNPDTAMPAHSRSHSWDDKTCQKSANVSSIWHRNYSPRPESGTVSDAPQLKENPSTVGVERVISTKGLNLPRKSSIVKRPRSAELSEDDLLSQYSLSFTKKTKKNSSEGNKSLSFSEVFVPDLVNGPTNKKSVSTPPRTRNKFATFLQRKNEESGAVVVPGTRSRAACSSDSTDCVSNKVSIQPLDETAVTDKENNLHESEYGDQEGKRLVDTDVARNSSDDIPNNHIPGDHIPDKATVFTDEESYSFESSKFTRTISPPTLGTLRSCFSWSGGLGDFSRTPSPSPSTALQQFRRKSDSPTSLPENNMSDVSQLKSEESSDDESHPLREEACSSQSQESGEFSLQSSNASKLSQCSSKDSDSEESDCNIKLLDSQSDQTSKLRLSHFSKKDTPLRNKVPGLYKSSSADSLSTTKIKPLGPARASGLSKKPASIQKRKHHNAENKPGLQIKLNELWKNFGFKKDSEKLPPCKKPLSPVRDNIQLTPEAEEDIFNKPECGRVQRAIFQ

binding result: binds
B2: Exo1-ΔC (domain or fragment, human, UniProt Q9UQ84 1-602, looked up)
chain: MGIQGLLQFIKEASEPIHVRKYKGQVVAVDTYCWLHKGAIACAEKLAKGEPTDRYVGFCMKFVNMLLSHGIKPILVFDGCTLPSKKEVERSRRERRQANLLKGKQLLREGKVSEARECFTRSINITHAMAHKVIKAARSQGVDCLVAPYEADAQLAYLNKAGIVQAIITEDSDLLAFGCKKVILKMDQFGNGLEIDQARLGMCRQLGDVFTEEKFRYMCILSGCDYLSSLRGIGLAKACKVLRLANNPDIVKVIKKIGHYLKMNITVPEDYINGFIRANNTFLYQLVFDPIKRKLIPLNAYEDDVDPETLSYAGQYVDDSIALQIALGNKDINTFEQIDDYNPDTAMPAHSRSHSWDDKTCQKSANVSSIWHRNYSPRPESGTVSDAPQLKENPSTVGVERVISTKGLNLPRKSSIVKRPRSAELSEDDLLSQYSLSFTKKTKKNSSEGNKSLSFSEVFVPDLVNGPTNKKSVSTPPRTRNKFATFLQRKNEESGAVVVPGTRSRFFCSSDSTDCVSNKVSIQPLDETAVTDKENNLHESEYGDQEGKRLVDTDVARNSSDDIPNNHIPGDHIPDKATVFTDEESYSFESSKFTRTISPPTL
